Measurements reported in patent US20120316113A1, “FGF BASED FIBRIN BINDING PEPTIDES” (Baxter Healthcare S.A., priority 2011, published 2012).

How the values were obtained:
fibrin clots = target: T1, fibrin clots (Homo sapiens, UniProt P02671+P02675+P02679); assay: Stability of fibrin clots with aprotinin covalently bound through FS-anchors; type: biochemical; conditions: aprotinin EDC-coupled to the FS-anchor, clots kept in PBS at 37° C., after 5 days; compared with His-FGF-2 and pep1 anchors
T1 sequence (P02671 36-866 limits assumed): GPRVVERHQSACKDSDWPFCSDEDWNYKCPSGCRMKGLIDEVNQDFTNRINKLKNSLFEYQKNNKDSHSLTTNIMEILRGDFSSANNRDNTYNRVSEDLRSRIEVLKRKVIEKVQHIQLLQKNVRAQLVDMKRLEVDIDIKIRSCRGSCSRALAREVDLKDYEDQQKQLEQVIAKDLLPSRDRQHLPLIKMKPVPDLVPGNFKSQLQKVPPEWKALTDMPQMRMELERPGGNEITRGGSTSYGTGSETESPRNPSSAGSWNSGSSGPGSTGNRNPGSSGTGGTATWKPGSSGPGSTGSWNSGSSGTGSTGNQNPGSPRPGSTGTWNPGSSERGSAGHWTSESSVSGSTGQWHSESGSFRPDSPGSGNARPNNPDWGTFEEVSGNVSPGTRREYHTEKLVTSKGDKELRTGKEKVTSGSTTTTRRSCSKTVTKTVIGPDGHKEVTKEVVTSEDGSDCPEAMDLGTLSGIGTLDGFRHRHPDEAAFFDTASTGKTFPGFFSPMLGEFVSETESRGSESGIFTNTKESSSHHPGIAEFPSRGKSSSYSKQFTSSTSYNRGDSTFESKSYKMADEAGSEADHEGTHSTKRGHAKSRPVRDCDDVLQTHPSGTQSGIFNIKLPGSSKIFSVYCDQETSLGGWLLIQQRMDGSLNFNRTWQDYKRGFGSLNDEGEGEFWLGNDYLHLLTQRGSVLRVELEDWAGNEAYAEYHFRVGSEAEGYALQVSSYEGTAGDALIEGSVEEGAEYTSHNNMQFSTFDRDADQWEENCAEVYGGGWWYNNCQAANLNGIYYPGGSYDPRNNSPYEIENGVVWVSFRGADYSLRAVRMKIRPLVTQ
T1 sequence (P02675 45-491 limits assumed): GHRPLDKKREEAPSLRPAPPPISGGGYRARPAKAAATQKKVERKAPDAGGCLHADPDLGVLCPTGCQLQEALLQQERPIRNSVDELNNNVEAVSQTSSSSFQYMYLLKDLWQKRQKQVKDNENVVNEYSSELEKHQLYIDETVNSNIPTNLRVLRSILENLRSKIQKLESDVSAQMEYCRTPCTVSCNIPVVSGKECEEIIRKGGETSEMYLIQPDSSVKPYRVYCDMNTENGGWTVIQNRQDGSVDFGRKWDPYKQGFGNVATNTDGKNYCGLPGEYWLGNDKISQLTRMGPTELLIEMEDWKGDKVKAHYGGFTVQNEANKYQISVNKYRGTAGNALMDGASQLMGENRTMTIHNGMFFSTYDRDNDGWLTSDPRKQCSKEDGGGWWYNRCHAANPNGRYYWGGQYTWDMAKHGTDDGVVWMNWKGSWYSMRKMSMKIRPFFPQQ
T1 sequence (P02679 27-453): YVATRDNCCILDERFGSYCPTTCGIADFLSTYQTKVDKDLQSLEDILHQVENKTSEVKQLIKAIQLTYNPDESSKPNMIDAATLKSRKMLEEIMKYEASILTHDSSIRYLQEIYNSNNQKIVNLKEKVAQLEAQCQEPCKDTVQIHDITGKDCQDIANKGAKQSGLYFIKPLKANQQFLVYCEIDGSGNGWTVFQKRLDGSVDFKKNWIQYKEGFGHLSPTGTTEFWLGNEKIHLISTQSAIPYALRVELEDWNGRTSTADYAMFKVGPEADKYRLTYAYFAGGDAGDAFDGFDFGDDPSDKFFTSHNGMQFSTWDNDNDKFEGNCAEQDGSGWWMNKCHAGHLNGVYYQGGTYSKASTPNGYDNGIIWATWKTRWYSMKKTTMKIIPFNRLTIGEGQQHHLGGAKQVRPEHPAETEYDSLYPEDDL
Excerpt: Aprotinin was successfully covalently bound to one FS-anchor (His-FGF-2, pep1 (68 an), pep3 (37 aa) and pep4 (28 aa)) using a standard protocol for 1-ethyl-3-(3-dimethylaminopropyl)carbodiimide) (EDC) coupling (FIG. 8A). For a positive control recombinant human FGF-2 (ProSpec Tany, Israel) and for a negative control phosphate buffered saline (PBS) were used. Covalently linked to a FS-anchor and purified aprotinin was mixed with fibrinogen and finally with thrombin to form fibrin clots. These fibrin clots were kept in PBS at 37° C. to observe stability and degradation of fibrin.

fibrin = target: T2, fibrin (Homo sapiens, UniProt P02671+P02675+P02679); assay: Fibrin binding assay by ELISA; conditions: fibrinogen-coated plate incubated with 10 I.U./ml thrombin, various concentrations
T2 construct: an activity for processing fibrinogen to fibrin, preferably a thrombin preparation; purchased Baxter AG, Vienna (Tisseel fibrinogen and Tisseel thrombin)
T2 sequence (P02671 36-866 limits assumed): T1 sequence (P02671 36-866 limits assumed)
T2 sequence (P02675 45-491 limits assumed): T1 sequence (P02675 45-491 limits assumed)
T2 sequence (P02679 27-453): T1 sequence (P02679 27-453)
Description: A polystyrene 96-well plate (Nunc® Maxisorp EUSA-plates) was coated with 1 mg/ml fibrinogen (Tisseel®, Baxter AG, Vienna) overnight at 4° C. and then blocked with blocking solution (PBS+1% BSA) for 2 hours at room temperature CRT). After washing three times with PBS, purified peptides were added in various dilutions to the plate and incubated for 1 hour at RT. After the three times washing with PBS, a monoclonal anti-His6-peroxidase antibody (Sigma-Aldrich, Vienna), diluted in PBS+0.1% Tween (Sigma-Aldrich, Vienna) was added and incubated for 1 hour at RT. Finally, the plate was washed three times with PBS again and wells were incubated with o-phenylenediaminehydrochlorid substrate. Absorbance was measured at 492 nm and 620 nm. For fibrin binding analysis, the plate was first coated with fibrinogen overnight at 4° C. and then incubated with 10 I.U./ml thrombin (Tisseel, Baxter AG, Vienna) for 30 minutes at 37° C. The following procedure was the same as described above. […] The signals were detected and recorded at the Reichert SR7000 Surface Plasmon Resonance Analytical Instrument (Reichert Analytical, NY, USA). […]

Row | Sequence | stability of fibrin clots (fibrin clots) | binding affinity to fibrin (fibrin)
1 | EDGRLLASKCVTDECFFFERLESNNYNTYRSRHHHHH (EDGRLLASKCVTDECFFFERLESNNYNTYRSRHHHHH; synthetic peptide pep 3 (37 aa), peptide #3, pep3 with C-terminus 5x HIS-tag) [also expressed recombinantly] | higher stability | –
2 | FERLESNNYN TYRSRHHHHH (FERLESNNYNTYRSRHHHHH; synthetic peptide pep 5 (20 aa), peptide #5, pep5 with C-terminus 5x HIS-tag) | – | little binding affinity
3 | KCVTDECFFFERLESNNYNTYRSRHHHHH (KCVTDECFFFERLESNNYNTYRSRHHHHH; synthetic peptide pep 4 (29 aa), peptide #4, pep4 with C-terminus 5x HIS-tag) | higher stability | –
